Laboratory results reported in the supplement of paper PMC12042874.
± gives the uncertainty stated by the source.

assay: amyloid nucleation score (Sup35N fusion, yeast selection) (log enrichment); library NNK1; higher = more nucleation; inactive = no reads after selection
How it was run: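 The nucleation score is a DiMSum log enrichment of output over input reads, centred on the mode score of non-aggregating sequences. Sequences under 100 input reads were excluded, and reads came from Illumina sequencing of plasmid inserts. Psi-negative yeast expressing Sup35N fused to peptides of 20 random codons were induced with 100 μM copper sulfate for 24 hours and grown 7 days at 30°C on medium lacking adenine and uracil. Random libraries had three technical output replicates.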

**Q.** Which amyloid nucleation score does the source give for VEDENKDSVIKVEKLLPHNL here?
**A.** Its amyloid nucleation score is -0.342 ± 0.29.

**Q.** Which amyloid nucleation score does the source give for SELYLFSSRGIYQSTRLRLR here?
**A.** The amyloid nucleation score was -0.147 ± 0.81.

**Q.** Which amyloid nucleation score does the source give for DEFSFDSSLLMLFGAGYGV here?
**A.** The amyloid nucleation score was 0.932 ± 0.62.

**Q.** For MPCFGVQKIYQLDETMPSET, which amyloid nucleation score is on record?
**A.** Its amyloid nucleation score is 0.141 ± 0.45.

**Q.** Which amyloid nucleation score does the source give for AMQKESRGTWGSVTAQVHGM here?
**A.** The amyloid nucleation score was 0.304 ± 0.59.

**Q.** With MDRFRHNLILICLFLPLILV as the substance, how does the amyloid nucleation score read?
**A.** Its amyloid nucleation score is -0.364 ± 0.75.

**Q.** For NGYELYTDQGGQLVVCDESS, which amyloid nucleation score is on record?
**A.** Its amyloid nucleation score is -2.07 ± 1.6.

**Q.** With MTRLINYCNGYNAKVVNWCF as the substance, how does the amyloid nucleation score read?
**A.** Its amyloid nucleation score is 0.7 ± 0.97.

**Q.** For NVGYTYGYRKNSADNMAFCV, which amyloid nucleation score is on record?
**A.** Its amyloid nucleation score is “inactive”.

**Q.** Which amyloid nucleation score does the source give for FLATYLMEVYMMDSWNF here?
**A.** Its amyloid nucleation score is -1.65 ± 1.4.

**Q.** Which amyloid nucleation score does the source give for EFVVGDKR here?
**A.** Its amyloid nucleation score is -0.311 ± 0.82.

**Q.** For VCYVAMLNHTSPMSLASSAR, which amyloid nucleation score is on record?
**A.** The amyloid nucleation score was “inactive”.

**Q.** For KFYYSLDVSSRCNFVLLEVE, which amyloid nucleation score is on record?
**A.** The amyloid nucleation score was 0.669 ± 0.65.

**Q.** Which amyloid nucleation score does the source give for SMVSFII here?
**A.** Its amyloid nucleation score is -0.278 ± 0.72.

**Q.** Which amyloid nucleation score does the source give for WTCLKQEPLAWRWL here?
**A.** Its amyloid nucleation score is -0.093 ± 0.94.

**Q.** Which amyloid nucleation score does the source give for SCFPLLRQFAGWLSWSRT here?
**A.** The amyloid nucleation score was 2.28 ± 0.18.

**Q.** For LMHKDISERDRSCLWL, which amyloid nucleation score is on record?
**A.** Its amyloid nucleation score is 0.033 ± 0.5.

**Q.** For CFCKGGPVVTRMWEGIYPC, which amyloid nucleation score is on record?
**A.** Its amyloid nucleation score is -0.014 ± 0.27.

**Q.** For ELLCLNL, which amyloid nucleation score is on record?
**A.** Its amyloid nucleation score is -0.83 ± 0.73.

**Q.** For TVMSNHGHLMKYYFVRLEGF, which amyloid nucleation score is on record?
**A.** Its amyloid nucleation score is 0.759 ± 0.62.

**Q.** For FGNRFEYRFERTN, which amyloid nucleation score is on record?
**A.** Its amyloid nucleation score is -0.482 ± 1.1.

**Q.** With SLAPLHLFERMGGRS as the substance, how does the amyloid nucleation score read?
**A.** Its amyloid nucleation score is 0.532 ± 0.86.

**Q.** Which amyloid nucleation score does the source give for VKHFLSDMRLFIGPKIFMRC here?
**A.** The amyloid nucleation score was 4.49 ± 0.062.

**Q.** For NHFGAYVVYGFIEHKKTGMW, which amyloid nucleation score is on record?
**A.** Its amyloid nucleation score is 1.82 ± 0.19.

**Q.** Which amyloid nucleation score does the source give for YDGPLFVTFILI here?
**A.** The amyloid nucleation score was 5.88 ± 0.077.

**Q.** Which amyloid nucleation score does the source give for FCVRWILPLDISMGDRHSSE here?
**A.** The amyloid nucleation score was 0.592 ± 0.49.

**Q.** For VLLACGIFKDPTSCFCMLSL, which amyloid nucleation score is on record?
**A.** Its amyloid nucleation score is -0.432 ± 0.48.

**Q.** For HPYSFWWSWAVKPLPGLRRI, which amyloid nucleation score is on record?
**A.** The amyloid nucleation score was 0.485 ± 0.73.

**Q.** Which amyloid nucleation score does the source give for RFFCDCFFGSRGE here?
**A.** Its amyloid nucleation score is 1.88 ± 0.36.

**Q.** For FFWLVAK, which amyloid nucleation score is on record?
**A.** Its amyloid nucleation score is -1.18 ± 1.2.

**Q.** With PRNQNMT as the substance, how does the amyloid nucleation score read?
**A.** The amyloid nucleation score was 0.992 ± 1.

**Q.** Which amyloid nucleation score does the source give for CAVVVGVSGGAHEGVGKTKY here?
**A.** Its amyloid nucleation score is -0.35 ± 0.45.

**Q.** For GVWYCYLGVN, which amyloid nucleation score is on record?
**A.** The amyloid nucleation score was -0.431 ± 1.4.

**Q.** For SWISCASGFFYFWAIF, which amyloid nucleation score is on record?
**A.** The amyloid nucleation score was -0.739 ± 0.77.

**Q.** Which amyloid nucleation score does the source give for RGFCTGNDVF here?
**A.** Its amyloid nucleation score is “inactive”.

**Q.** Which amyloid nucleation score does the source give for LRTDALFY here?
**A.** Its amyloid nucleation score is 0.577 ± 0.69.

**Q.** For TLQLCLSSCWYKGRRVGLEC, which amyloid nucleation score is on record?
**A.** The amyloid nucleation score was 0.483 ± 0.3.

**Q.** For VEVATPLTGSLQLPASYIMP, which amyloid nucleation score is on record?
**A.** Its amyloid nucleation score is “inactive”.

**Q.** With RNNEDGRLKDRRRGLSHGPC as the substance, how does the amyloid nucleation score read?
**A.** The amyloid nucleation score was -0.763 ± 0.36.

**Q.** For AYNVVHSSLGTKGVRGSCAT, which amyloid nucleation score is on record?
**A.** Its amyloid nucleation score is -0.74 ± 1.7.

**Q.** Which amyloid nucleation score does the source give for DDMCFLN here?
**A.** Its amyloid nucleation score is 0.797 ± 0.34.

**Q.** For VPDESDHFSFRVEMLSLKVD, which amyloid nucleation score is on record?
**A.** Its amyloid nucleation score is -0.639 ± 0.45.

**Q.** For YCPNLYVVDGCFVLNSKLIL, which amyloid nucleation score is on record?
**A.** Its amyloid nucleation score is 5.63 ± 0.072.

**Q.** With GPCGTLSI as the substance, how does the amyloid nucleation score read?
**A.** Its amyloid nucleation score is -0.541 ± 0.84.

**Q.** For SRIYLLSDRSVFLLLYNYYR, which amyloid nucleation score is on record?
**A.** Its amyloid nucleation score is -0.167 ± 0.41.

**Q.** Which amyloid nucleation score does the source give for SGYVNFHL here?
**A.** Its amyloid nucleation score is “inactive”.

**Q.** With GTATLSHTCKHTPLRDTRLV as the substance, how does the amyloid nucleation score read?
**A.** The amyloid nucleation score was -0.16 ± 0.32.

**Q.** For SARQVSGLTWVM, which amyloid nucleation score is on record?
**A.** Its amyloid nucleation score is 2.52 ± 0.11.

**Q.** With CIIMCLRSDPV as the substance, how does the amyloid nucleation score read?
**A.** The amyloid nucleation score was 0.211 ± 0.3.

**Q.** Which amyloid nucleation score does the source give for LWCCMTLTIASNDFLNIRCM here?
**A.** The amyloid nucleation score was 1.31 ± 0.15.

**Q.** For RSIFVP, which amyloid nucleation score is on record?
**A.** Its amyloid nucleation score is “inactive”.

**Q.** Which amyloid nucleation score does the source give for GFYSLHTALARIPHEHAVFF here?
**A.** Its amyloid nucleation score is -0.018 ± 0.61.

**Q.** With APMHINLWRDGTNVGQDWVV as the substance, how does the amyloid nucleation score read?
**A.** The amyloid nucleation score was 1.88 ± 0.69.

**Q.** With GVRGVSKMECKYQKFIGLTG as the substance, how does the amyloid nucleation score read?
**A.** Its amyloid nucleation score is 1.78 ± 0.61.

**Q.** For SWGQTLTMNNP, which amyloid nucleation score is on record?
**A.** Its amyloid nucleation score is -0.273 ± 0.38.

**Q.** For YYLIFHFDYHLVIYLW, which amyloid nucleation score is on record?
**A.** Its amyloid nucleation score is 0.707 ± 0.41.

**Q.** With VINCITRLDVQYRKHTPFAN as the substance, how does the amyloid nucleation score read?
**A.** Its amyloid nucleation score is -0.382 ± 0.3.

**Q.** Which amyloid nucleation score does the source give for SVLLRFYFTRNCGFFGRSTV here?
**A.** Its amyloid nucleation score is 0.7 ± 0.97.

**Q.** Which amyloid nucleation score does the source give for DFSVQKSGSYQTEHYLVFRN here?
**A.** The amyloid nucleation score was -0.12 ± 0.21.

**Q.** Which amyloid nucleation score does the source give for APGWTVDTSPYSAGVCVVTP here?
**A.** The amyloid nucleation score was 0.099 ± 0.4.

**Q.** Which amyloid nucleation score does the source give for RHVVRR here?
**A.** Its amyloid nucleation score is 0.441 ± 0.36.

**Q.** With NSYLCCIWK as the substance, how does the amyloid nucleation score read?
**A.** The amyloid nucleation score was 7.32 ± 0.08.

**Q.** With RSARIKNWSSLYLWMINSCV as the substance, how does the amyloid nucleation score read?
**A.** Its amyloid nucleation score is 0.469 ± 0.32.

**Q.** With IIGTPVPYLGVLKTFDIKYF as the substance, how does the amyloid nucleation score read?
**A.** The amyloid nucleation score was 0.125 ± 0.36.

**Q.** With FINLASVVSIVVLVT as the substance, how does the amyloid nucleation score read?
**A.** Its amyloid nucleation score is 4.24 ± 0.076.

**Q.** Which amyloid nucleation score does the source give for GRMEGTGNYMVYKDQEGVNG here?
**A.** The amyloid nucleation score was “inactive”.

**Q.** With DRRKAPGLMNAMD as the substance, how does the amyloid nucleation score read?
**A.** Its amyloid nucleation score is 0.737 ± 0.97.

**Q.** Which amyloid nucleation score does the source give for LYTCCSTYVCSNLGRNVK here?
**A.** Its amyloid nucleation score is 7.074 ± 0.06.

**Q.** For MLIRWNSYTGHIGWIFSGKA, which amyloid nucleation score is on record?
**A.** The amyloid nucleation score was 0.94 ± 0.19.

**Q.** Which amyloid nucleation score does the source give for VLGKCVNR here?
**A.** Its amyloid nucleation score is -0.366 ± 0.21.

**Q.** With FLSCFDILLHGVSYNSFQYW as the substance, how does the amyloid nucleation score read?
**A.** The amyloid nucleation score was 0.54 ± 0.42.
